Here are results for three molecules from article PMC8770131, “Structural mechanism for the selective phosphorylation of DNA-loaded MCM double hexamers by the Dbf4-dependent kinase” (Nature Structural & Molecular Biology, 2021).

B2: Dbf4 (natural protein, S. cerevisiae)
chain: MVSPTKMIIRSPLKETDTNLKHNNGIAASTTAAGHLNVFSNDNNCNNNNTTESFPKKRSLERLELQQQQHLHEKKRARIERARSIEGAVQVSKGTGLKNVEPRVTPKELLEWQTNWKKIMKRDSRIYFDITDDVEMNTYNKSKMDKRRDLLKRGFLTLGAQITQFFDTTVTIVITRRSVENIYLLKDTDILSRAKKNYMKVWSYEKAARFLKNLDVDLDHLSKTKSASLAAPTLSNLLHNEKLYGPTDRDPRTKRDDIHYFKYPHVYLYDLWQTWAPIITLEWKPQELTNLDELPYPILKIGSFGRCPFIGDRNYDESSYKRVVKRYSRDKANKKYALQLRALFQYHADTLLNTSSVNDQTKNLIFIPHTCNDSTKSFKKWMQEKAKNFEKTELKKTDDSAVQDVRNEHADQTDEKNSILLNETETKEPPLKEEKENKQSIAEESNKYPQRKELAATPKLNHPVLATFARQETEEVPDDLCTLKTKSRQAFEIKASGAHQSNDVATSFGNGLGPTRASVMSKNMKSLSRLMVDRKLGVKQTNGNNKNYTATIATTAETSKENRHRLDFNALKKDEAPSKETGKDSAVHLETNRKPQNFPKVATKSVSADSKVHNDIKITTTESPTASKKSTSTNVTLHFNAQTAQTAQPVKKETVKNSGYCENCRVKYESLEQHIVSEKHLSFAENDLNFEAIDSLIENLRFQI
notes: Dbf4, S. cerevisiae; Subunit as it stands in DDK in the DH-DDK cryo-EM structure; also called Dbf4 subunit of DDK; CBP-Dbf4; source: S. cerevisiae, overexpressed with Cdc7, purified as DDK

Holding throughout (test): cryo-EM structure; DH loaded with ORC, Cdc6 and Mcm2-7-Cdt1 (96 nM each) on MH-capped ARS1 DNA (8 nM) in buffer B at 30 °C, then 289 nM DDK for 50 min before plunge-freezing; neither crosslinking nor nucleotide analogs
Common to all, as to settings: both partners purified

One assay has as its target T1, Mcm4 (S. cerevisiae, UniProt P30665 1-933).
T1 construct: Mcm4, S. cerevisiae; Subunit as it stands in the DH of the cryo-EM structures; modelled from residue 155 in the DDK-engaged model; also called Mcm4 subunit; source: S. cerevisiae, overexpressed as Mcm2-7-Cdt1, purified; in the DNA-loaded double hexamer
T1 sequence: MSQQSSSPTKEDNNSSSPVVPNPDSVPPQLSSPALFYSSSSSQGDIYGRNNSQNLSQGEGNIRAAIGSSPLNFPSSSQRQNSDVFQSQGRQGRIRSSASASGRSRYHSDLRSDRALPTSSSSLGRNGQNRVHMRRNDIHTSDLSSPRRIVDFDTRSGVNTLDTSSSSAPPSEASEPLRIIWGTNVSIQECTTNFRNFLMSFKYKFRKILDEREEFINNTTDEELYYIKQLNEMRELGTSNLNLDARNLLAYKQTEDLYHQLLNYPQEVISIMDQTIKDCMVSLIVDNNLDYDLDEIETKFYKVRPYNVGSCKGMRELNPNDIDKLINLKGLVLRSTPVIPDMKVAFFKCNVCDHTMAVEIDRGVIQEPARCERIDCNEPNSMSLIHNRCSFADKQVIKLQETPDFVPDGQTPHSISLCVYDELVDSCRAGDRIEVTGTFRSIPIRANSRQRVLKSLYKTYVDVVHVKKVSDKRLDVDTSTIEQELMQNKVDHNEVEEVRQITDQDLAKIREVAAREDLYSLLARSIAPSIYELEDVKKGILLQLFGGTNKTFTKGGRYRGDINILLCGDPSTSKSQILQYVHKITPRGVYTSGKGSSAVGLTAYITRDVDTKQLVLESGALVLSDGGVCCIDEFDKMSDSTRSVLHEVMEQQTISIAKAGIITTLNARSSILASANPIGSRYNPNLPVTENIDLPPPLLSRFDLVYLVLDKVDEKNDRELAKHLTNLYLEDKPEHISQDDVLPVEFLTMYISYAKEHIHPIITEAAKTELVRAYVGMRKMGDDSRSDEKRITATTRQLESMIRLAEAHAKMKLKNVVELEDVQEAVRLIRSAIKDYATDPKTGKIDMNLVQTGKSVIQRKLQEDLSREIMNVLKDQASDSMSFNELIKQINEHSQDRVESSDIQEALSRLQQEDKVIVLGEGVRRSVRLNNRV

For the assay “Dbf4”, the target named is B2.
In another assay the target is T2, Mcm2 (S. cerevisiae, UniProt P29469 1-868).
T2 construct: Mcm2, S. cerevisiae; Subunit as it stands in the DH of the cryo-EM structures; also called Mcm2 subunit; source: S. cerevisiae, overexpressed as Mcm2-7-Cdt1, purified; in the DNA-loaded double hexamer
T2 sequence: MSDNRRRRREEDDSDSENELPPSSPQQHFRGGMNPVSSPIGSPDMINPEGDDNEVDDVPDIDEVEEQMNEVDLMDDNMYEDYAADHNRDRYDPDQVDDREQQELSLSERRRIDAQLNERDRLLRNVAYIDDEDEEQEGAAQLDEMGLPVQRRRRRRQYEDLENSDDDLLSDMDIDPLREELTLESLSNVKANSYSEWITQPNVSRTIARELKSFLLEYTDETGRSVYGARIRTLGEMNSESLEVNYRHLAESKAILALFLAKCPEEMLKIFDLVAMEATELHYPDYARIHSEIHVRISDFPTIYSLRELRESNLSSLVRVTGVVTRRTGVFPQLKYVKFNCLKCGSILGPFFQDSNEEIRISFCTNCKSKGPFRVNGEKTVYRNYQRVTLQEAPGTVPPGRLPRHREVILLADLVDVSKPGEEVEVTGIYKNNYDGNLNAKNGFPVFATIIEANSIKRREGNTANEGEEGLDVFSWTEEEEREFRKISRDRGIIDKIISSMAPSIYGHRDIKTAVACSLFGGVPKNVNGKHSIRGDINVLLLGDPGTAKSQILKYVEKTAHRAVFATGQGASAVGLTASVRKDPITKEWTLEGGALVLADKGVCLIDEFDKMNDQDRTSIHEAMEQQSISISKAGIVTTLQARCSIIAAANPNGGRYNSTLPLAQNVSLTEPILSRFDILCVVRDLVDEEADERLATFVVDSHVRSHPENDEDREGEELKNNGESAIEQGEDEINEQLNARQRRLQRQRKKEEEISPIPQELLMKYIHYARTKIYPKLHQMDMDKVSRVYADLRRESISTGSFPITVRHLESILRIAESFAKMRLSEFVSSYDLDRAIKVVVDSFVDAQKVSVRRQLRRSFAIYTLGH

A further assay concerns the target T3, Mcm3 (S. cerevisiae, UniProt P24279 1-971).
T3 construct: Mcm3, S. cerevisiae; also called Mcm3 subunit; source: S. cerevisiae, overexpressed as Mcm2-7-Cdt1, purified; in the DNA-loaded double hexamer

T3 sequence (P24279 whole entry): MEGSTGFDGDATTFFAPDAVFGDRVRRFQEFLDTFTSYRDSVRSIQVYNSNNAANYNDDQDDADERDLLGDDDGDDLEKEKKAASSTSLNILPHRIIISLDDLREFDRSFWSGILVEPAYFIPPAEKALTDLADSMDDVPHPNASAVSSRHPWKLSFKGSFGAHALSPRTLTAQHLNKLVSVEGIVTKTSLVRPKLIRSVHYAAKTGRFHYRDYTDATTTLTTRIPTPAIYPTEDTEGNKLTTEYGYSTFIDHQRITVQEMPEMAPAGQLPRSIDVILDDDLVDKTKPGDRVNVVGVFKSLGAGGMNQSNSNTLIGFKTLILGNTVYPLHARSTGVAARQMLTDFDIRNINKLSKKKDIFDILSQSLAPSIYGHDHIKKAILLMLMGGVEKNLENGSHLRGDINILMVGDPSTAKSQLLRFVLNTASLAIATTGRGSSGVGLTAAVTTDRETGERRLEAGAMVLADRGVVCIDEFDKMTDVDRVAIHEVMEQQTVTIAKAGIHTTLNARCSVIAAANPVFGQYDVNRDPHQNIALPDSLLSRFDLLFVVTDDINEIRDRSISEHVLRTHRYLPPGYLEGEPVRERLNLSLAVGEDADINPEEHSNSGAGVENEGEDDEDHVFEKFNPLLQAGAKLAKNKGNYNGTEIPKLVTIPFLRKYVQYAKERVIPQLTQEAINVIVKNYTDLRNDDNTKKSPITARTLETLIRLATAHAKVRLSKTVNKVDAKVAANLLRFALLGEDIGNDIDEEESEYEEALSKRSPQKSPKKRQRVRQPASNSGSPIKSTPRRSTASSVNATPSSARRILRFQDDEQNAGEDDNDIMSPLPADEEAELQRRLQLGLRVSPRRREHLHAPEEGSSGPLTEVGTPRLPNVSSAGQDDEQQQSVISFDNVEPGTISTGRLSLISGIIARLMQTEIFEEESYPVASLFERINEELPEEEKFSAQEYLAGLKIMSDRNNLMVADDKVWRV

B1: Cdc7 (enzyme, S. cerevisiae)
chain: MTSKTKNIDDIPPEIKEEMIQLYHDLPGIENEYKLIDKIGEGTFSSVYKAKDITGKITKKFASHFWNYGSNYVALKKIYVTSSPQRIYNELNLLYIMTGSSRVAPLCDAKRVRDQVIAVLPYYPHEEFRTFYRDLPIKGIKKYIWELLRALKFVHSKGIIHRDIKPTNFLFNLELGRGVLVDFGLAEAQMDYKSMISSQNDYDNYANTNHDGGYSMRNHEQFCPCIMRNQYSPNSHNQTPPMVTIQNGKVVHLNNVNGVDLTKGYPKNETRRIKRANRAGTRGFRAPEVLMKCGAQSTKIDIWSVGVILLSLLGRRFPMFQSLDDADSLLELCTIFGWKELRKCAALHGLGFEASGLIWDKPNGYSNGLKEFVYDLLNKECTIGTFPEYSVAFETFGFLQQELHDRMSIEPQLPDPKTNMDAVDAYELKKYQEEIWSDHYWCFQVLEQCFEMDPQKRSSAEDLLKTPFFNELNENTYLLDGESTDEDDVVSSSEADLLDKDVLLISE
notes: Cdc7, S. cerevisiae; Subunit as it stands in DDK in the DH-DDK cryo-EM structure; also called Cdc7 catalytic subunit of DDK; source: S. cerevisiae, overexpressed with CBP-Dbf4, purified as DDK
Consider B1, for which the binding result with Mcm4 and with Dbf4 was “binds” throughout.

As for B2, the binding result in the assay with Mcm4 and with Mcm2 was “binds” throughout.

B3: Mcm7 (natural protein, S. cerevisiae)
chain: MSAALPSIQLPVDYNNLFNEITDFLVTFKQDTLSSDATRNENEDENLDAENIEQHLLEKGPKYMAMLQKVANRELNSVIIDLDDILQYQNEKFLQGTQADDLVSAIQQNANHFTELFCRAIDNNMPLPTKEIDYKDDVLDVILNQRRLRNERMLSDRTNEIRSENLMDTTMDPPSSMNDALREVVEDETELFPPNLTRRYFLYFKPLSQNCARRYRKKAISSKPLSVRQIKGDFLGQLITVRGIITRVSDVKPAVEVIAYTCDQCGYEVFQEVNSRTFTPLSECTSEECSQNQTKGQLFMSTRASKFSAFQECKIQELSQQVPVGHIPRSLNIHVNGTLVRSLSPGDIVDVTGIFLPAPYTGFKALKAGLLTETYLEAQFVRQHKKKFASFSLTSDVEERVMELITSGDVYNRLAKSIAPEIYGNLDVKKALLLLLVGGVDKRVGDGMKIRGDINVCLMGDPGVAKSQLLKAICKISPRGVYTTGKGSSGVGLTAAVMKDPVTDEMILEGGALVLADNGICCIDEFDKMDESDRTAIHEVMEQQTISISKAGINTTLNARTSILAAANPLYGRYNPRLSPLDNINLPAALLSRFDILFLMLDIPSRDDDEKLAEHVTYVHMHNKQPDLDFTPVEPSKMREYIAYAKTKRPVMSEAVNDYVVQAYIRLRQDSKREMDSKFSFGQATPRTLLGIIRLSQALAKLRLADMVDIDDVEEALRLVRVSKESLYQETNKSKEDESPTTKIFTIIKKMLQETGKNTLSYENIVKTVRLRGFTMLQLSNCIQEYSYLNVWHLINEGNTLKFVDDGTMDTDQEDSLVSTPKLAPQTTASANVSAQDSDIDLQDA
notes: Mcm7, S. cerevisiae; also called Mcm7 subunit; source: S. cerevisiae, overexpressed as Mcm2-7-Cdt1, purified; in the DNA-loaded double hexamer
On to B3, for which the binding result with Mcm4 and in the assay with Mcm3 was “binds” in each case.
